Laboratory results taken from paper PMC11640050.

Biological target: Rictor (R28 cells)
Experiment: co-IP (Rictor IP) with DSP crosslinker, western blot band quantification
Conditions: TNF+HG treatment

Substance	ratio to parent
3X-FLAG-tagged wild-type HSPB4 (αA-crystallin) (from UniProt P02489) R21A	0.35
3X-FLAG-tagged wild-type HSPB4 (αA-crystallin) (from UniProt P02489) R49A	0.26
3X-FLAG-tagged wild-type HSPB4 (αA-crystallin) (from UniProt P02489) T148A	0.75
3X-FLAG-tagged wild-type HSPB4 (αA-crystallin) (from UniProt P02489) T148D	0.11
